In IntAct's records for PubMed 29039417:

B1: BBSome complex member BBS2 (Homo sapiens), Q9BXC9 (parent)
chain: MLLPVFTLKLRHKISPRMVAIGRYDGTHPCLAAATQTGKVFIHNPHTRNQHVSASRVFQSPLESDVSLLSINQAVSCLTAGVLNPELGYDALLVGTQTNLLAYDVYNNSDLFYREVADGANAIVLGTLGDISSPLAIIGGNCALQGFNHEGSDLFWTVTGDNVNSLALCDFDGDGKKELLVGSEDFDIRVFKEDEIVAEMTETEIVTSLCPMYGSRFGYALSNGTVGVYDKTSRYWRIKSKNHAMSIHAFDLNSDGVNELITGWSNGKVDARSDRTGEVIFKDNFSSAIAGVVEGDYRMDGHIQLICCSVDGEIRGYLPGTAEMRGNLMDTSAEQDLIRELSQKKQNLLLELRNYEENAKAELASPLNEADGHRGIIPANTRLHTTLSVSLGNETQTAHTELRISTSNDTIIRAVLIFAEGIFTGESHVVHPSIHNLSSSICIPIVPPKDVPVDLHLKAFVGYRSSTQFHVFESTRQLPRFSMYALTSLDPASEPISYVNFTIAERAQRVVVWLGQNFLLPEDTHIQNAPFQVCFTSLRNGGHLHIKIKLSGEITINTDDIDLAGDIIQSMASFFAIEDLQVEADFPVYFEELRKVLVKVDEYHSVHQKLSADMADHSNLIRSLLVGAEDARLMRDMKTMKSRYMELYDLNRDLLNGYKIRCNNHTELLGNLKAVNQAIQRAGRLRVGKPKNQVITACRDAIRSNNINTLFKIMRVGTASS
partner: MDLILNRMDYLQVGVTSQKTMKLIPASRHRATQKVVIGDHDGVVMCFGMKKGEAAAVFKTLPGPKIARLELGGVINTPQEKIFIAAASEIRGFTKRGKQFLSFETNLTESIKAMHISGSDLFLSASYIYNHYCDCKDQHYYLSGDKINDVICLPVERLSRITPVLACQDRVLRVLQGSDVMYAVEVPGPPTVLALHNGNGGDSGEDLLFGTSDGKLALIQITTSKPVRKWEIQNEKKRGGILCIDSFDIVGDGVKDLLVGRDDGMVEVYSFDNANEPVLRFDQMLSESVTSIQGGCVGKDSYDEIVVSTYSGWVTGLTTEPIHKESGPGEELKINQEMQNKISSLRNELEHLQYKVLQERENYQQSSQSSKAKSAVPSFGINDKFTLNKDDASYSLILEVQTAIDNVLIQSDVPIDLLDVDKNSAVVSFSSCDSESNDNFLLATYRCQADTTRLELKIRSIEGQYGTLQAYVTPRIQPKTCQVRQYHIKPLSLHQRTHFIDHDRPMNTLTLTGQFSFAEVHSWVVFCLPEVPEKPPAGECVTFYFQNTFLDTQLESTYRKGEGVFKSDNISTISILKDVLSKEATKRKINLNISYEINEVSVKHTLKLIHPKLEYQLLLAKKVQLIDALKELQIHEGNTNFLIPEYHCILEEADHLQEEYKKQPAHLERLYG

Variants of: B1
Details: with BBS7, Q8IWZ6-2

effect of a mutation on the interaction | Variant
with no effect | N663K
with no effect | N663E
with no effect | N663A
with no effect | S623K
with no effect | S623A
with no effect | S623E
with no effect | D653E
with no effect | D653A
with no effect | D653K
with no effect | N656E
with no effect | N656A
with no effect | N656K
with no effect | N619A
with no effect | N619K
with no effect | N619E
with no effect | R652A
with no effect | R652K
with no effect | R652E
with no effect | N651E
with no effect | N651K
with no effect | N651A
with no effect | C662E
with no effect | C662A

effect of a mutation on the interaction | Variant
with no effect | C662K
with no effect | G657K
with no effect | G657A
with no effect | G657E
with no effect | S618E
with no effect | S618K
with no effect | S618A
disrupting interaction strength | L610A
with no effect | L610E
with no effect | L610K
with no effect | D613K
with no effect | D613E
with no effect | D613A
with no effect | R635E
disrupting interaction strength | R635C
with no effect | R635K
with no effect | R635A
with no effect | G627K
with no effect | G627A
with no effect | G627E
with no effect | N664K
with no effect | N664A
with no effect | N664E

effect of a mutation on the interaction | Variant
disrupting interaction strength | L647A
with no effect | L647K
disrupting interaction strength | L647E
with no effect | S611E
with no effect | S611A
with no effect | S611K
with no effect | L655K
with no effect | L655E
with no effect | L655A
with no effect | M645A
with no effect | M645K
with no effect | M645E
with no effect | D616E
with no effect | D616A
with no effect | D616K
with no effect | H617K
with no effect | H617A
with no effect | H617E
with no effect | A615K
with no effect | A615E
disrupting interaction strength | Y644E
with no effect | Y644A
with no effect | Y644K

effect of a mutation on the interaction | Variant
with no effect | D649A
with no effect | D649K
with no effect | D649E
with no effect | T639E
with no effect | T639A
with no effect | T639K
with no effect | S605A
disrupting interaction strength | S605E
with no effect | S605K
with no effect | A612E
with no effect | A612K
with no effect | K659A
with no effect | K659E
with no effect | R622E
with no effect | R622K
with no effect | R622A
with no effect | Y648A
with no effect | Y648K
with no effect | Y648E
with no effect | H604K
with no effect | M614K
with no effect | M614A
with no effect | M614E

effect of a mutation on the interaction | Variant
with no effect | Y658A
with no effect | Y658E
with no effect | Y658K
with no effect | L625E
with no effect | L625A
with no effect | L625K
with no effect | R643E
with no effect | R643A
with no effect | R643K
with no effect | L654A
with no effect | L654E
with no effect | L654K
with no effect | L620A
with no effect | L620K
with no effect | L620E
with no effect | V606A
with no effect | V606K
with no effect | V606E
with no effect | L633K
with no effect | L633A
with no effect | L633E
with no effect | D636E
disrupting interaction strength | D636K

effect of a mutation on the interaction | Variant
disrupting interaction strength | D636G
with no effect | D636A
with no effect | L650A
with no effect | L650E
with no effect | L650K
with no effect | K638A
with no effect | K638E
with no effect | T666A
with no effect | T666E
with no effect | T666K
with no effect | S642K
with no effect | S642E
with no effect | S642A
with no effect | E667K
with no effect | E667A
with no effect | D630A
with no effect | D630E
with no effect | D630K
with no effect | I660E
with no effect | I660K
with no effect | I660A
with no effect | K609E
with no effect | K609A

effect of a mutation on the interaction | Variant
with no effect | Q608A
with no effect | Q608K
with no effect | Q608E
with no effect | I621A
with no effect | I621K
with no effect | I621E
with no effect | M640E
with no effect | M640K
with no effect | M640A
with no effect | A631E
with no effect | A631K
with no effect | E629A
with no effect | E629K
with no effect | R632K
with no effect | R632E
with no effect | R632A
with no effect | V626K
with no effect | V626A
with no effect | V626E
disrupting interaction strength | A628K
with no effect | A628E
with no effect | E646A
with no effect | E646K

effect of a mutation on the interaction | Variant
with no effect | K641A
with no effect | K641E
with no effect | L624A
with no effect | L624K
with no effect | L624E
with no effect | H665E
with no effect | H665K
with no effect | H665A
disrupting interaction strength | H607A
with no effect | H607K
with no effect | H607E
with no effect | R661K
with no effect | R661A
with no effect | R661E
with no effect | M634K
with no effect | M634A
with no effect | M634E
with no effect | M637A
with no effect | M637K
disrupting interaction strength | M637S
with no effect | M637E
